As usually defined, the stoichiometry N is a count of units in the complex or per binding partner. What is called Kd is a measure of binding affinity in units of concentration.

For series [1], the target named is Macaca mulatta TLR7 (mmTLR7) ectodomain (Macaca mulatta). The experiment in a line: cryo-EM structure; TLR7 in complex with mGrUrC^PO; resolution 2.9 Å.
Series [2] shares this target. Kind of series: cryo-EM structure; TLR7 in complex with mGrArA^PS (mixture of four PS stereoisomers); resolution 2.7 Å.
For series [3] the target is unchanged. The experiment in a line: cryo-EM structure; mmTLR7 ectodomain in the presence of GUC-v1^PS (mGmUdC^PS, mixture of RR, RS, SR and SS configurations); overall resolution 3.0 Å.
In series [4] the target is T1, TLR8 WT (hTLR8) (human, UniProt Q9NR97 27-827).
T1 sequence: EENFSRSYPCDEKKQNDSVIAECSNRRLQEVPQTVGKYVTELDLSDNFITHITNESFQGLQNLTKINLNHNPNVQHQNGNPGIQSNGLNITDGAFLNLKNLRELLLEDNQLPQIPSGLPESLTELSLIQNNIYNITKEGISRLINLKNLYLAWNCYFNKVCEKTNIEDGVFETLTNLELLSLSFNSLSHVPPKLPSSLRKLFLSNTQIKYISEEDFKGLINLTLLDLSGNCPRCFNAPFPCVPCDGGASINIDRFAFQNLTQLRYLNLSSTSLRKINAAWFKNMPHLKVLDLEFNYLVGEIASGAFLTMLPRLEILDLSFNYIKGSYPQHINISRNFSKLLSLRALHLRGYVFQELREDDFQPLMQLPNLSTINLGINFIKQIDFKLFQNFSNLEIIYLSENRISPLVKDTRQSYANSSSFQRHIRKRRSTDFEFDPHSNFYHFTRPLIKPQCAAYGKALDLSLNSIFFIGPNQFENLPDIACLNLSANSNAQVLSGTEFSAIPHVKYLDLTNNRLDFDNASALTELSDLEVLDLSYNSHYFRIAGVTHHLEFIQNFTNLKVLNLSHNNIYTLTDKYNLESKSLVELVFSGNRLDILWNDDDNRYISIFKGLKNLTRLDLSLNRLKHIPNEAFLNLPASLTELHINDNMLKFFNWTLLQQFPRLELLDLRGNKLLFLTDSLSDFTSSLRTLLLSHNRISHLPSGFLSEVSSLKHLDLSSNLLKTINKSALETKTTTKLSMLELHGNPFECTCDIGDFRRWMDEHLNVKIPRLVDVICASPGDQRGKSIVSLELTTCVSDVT
Kind of series: SPR; negligible binding; SPR with recombinant TLR7/TLR8; buffer, pH and temperature not in the material. The following applies: protein: recombinant; chain copies: 2; single-stranded. On the technique in general: Surface plasmon resonance follows binding to a sensor surface in real time, without labels.

Series [5] concerns the target T2, TLR7 WT (mmTLR7) (Macaca mulatta, UniProt B3Y653 27-839).
T2 sequence: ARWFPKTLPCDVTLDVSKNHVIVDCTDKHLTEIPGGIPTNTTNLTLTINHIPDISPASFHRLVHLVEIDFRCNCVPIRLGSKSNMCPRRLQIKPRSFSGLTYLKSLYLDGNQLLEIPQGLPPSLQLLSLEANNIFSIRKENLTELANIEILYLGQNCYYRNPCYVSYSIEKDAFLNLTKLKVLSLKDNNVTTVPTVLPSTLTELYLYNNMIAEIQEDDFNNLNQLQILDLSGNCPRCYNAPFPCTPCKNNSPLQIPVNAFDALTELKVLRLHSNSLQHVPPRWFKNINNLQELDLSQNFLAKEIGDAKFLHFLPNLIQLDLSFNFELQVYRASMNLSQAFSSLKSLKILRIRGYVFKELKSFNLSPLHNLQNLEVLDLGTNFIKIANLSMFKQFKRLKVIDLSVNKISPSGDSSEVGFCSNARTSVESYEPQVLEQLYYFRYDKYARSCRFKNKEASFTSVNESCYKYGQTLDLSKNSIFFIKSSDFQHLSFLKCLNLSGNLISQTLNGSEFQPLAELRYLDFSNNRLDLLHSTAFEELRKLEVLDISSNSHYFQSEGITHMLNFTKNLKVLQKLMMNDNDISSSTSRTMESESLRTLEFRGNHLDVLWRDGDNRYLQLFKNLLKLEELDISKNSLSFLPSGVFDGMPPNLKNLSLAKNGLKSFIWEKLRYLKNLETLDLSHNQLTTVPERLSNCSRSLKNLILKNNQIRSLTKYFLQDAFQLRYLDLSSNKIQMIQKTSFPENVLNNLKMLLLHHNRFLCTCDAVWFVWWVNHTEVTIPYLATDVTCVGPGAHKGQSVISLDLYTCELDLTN
The series is described as above. The settings on record: protein: recombinant; chain copies: 2; single-stranded.

For series [6], the target named is T2, TLR7 WT (mmTLR7). The experiment in a line: cryo-EM; stereoisomer mixture, modeled as SS; 2.7 A; buffer, pH and temperature not in the material. The settings on record: protein: recombinant; chain copies: 2; single-stranded.
A further series concerns the target T3, TLR8 F495S (human, UniProt Q9NR97 27-827, F495S).
T3 sequence: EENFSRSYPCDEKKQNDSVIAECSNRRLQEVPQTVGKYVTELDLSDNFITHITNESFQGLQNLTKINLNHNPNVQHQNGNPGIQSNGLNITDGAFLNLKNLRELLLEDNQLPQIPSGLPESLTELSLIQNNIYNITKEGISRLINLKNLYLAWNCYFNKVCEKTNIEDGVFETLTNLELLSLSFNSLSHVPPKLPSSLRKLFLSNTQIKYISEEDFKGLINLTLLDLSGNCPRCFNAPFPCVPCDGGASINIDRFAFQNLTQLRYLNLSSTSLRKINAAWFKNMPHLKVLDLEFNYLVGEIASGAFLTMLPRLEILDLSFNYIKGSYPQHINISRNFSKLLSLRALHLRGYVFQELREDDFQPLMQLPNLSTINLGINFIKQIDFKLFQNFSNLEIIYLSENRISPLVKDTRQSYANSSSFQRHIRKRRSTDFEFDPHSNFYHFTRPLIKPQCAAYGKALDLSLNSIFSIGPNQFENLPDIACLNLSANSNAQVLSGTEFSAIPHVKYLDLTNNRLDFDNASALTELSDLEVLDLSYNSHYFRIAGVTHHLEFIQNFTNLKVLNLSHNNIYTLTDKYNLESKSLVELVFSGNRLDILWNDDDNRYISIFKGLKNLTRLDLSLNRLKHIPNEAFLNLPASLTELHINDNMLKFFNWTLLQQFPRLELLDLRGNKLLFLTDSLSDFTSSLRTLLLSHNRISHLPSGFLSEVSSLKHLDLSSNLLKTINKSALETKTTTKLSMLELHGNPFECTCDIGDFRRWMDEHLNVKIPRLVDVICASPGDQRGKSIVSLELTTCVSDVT
The experiment in a line: SPR; no binding observed; SPR with recombinant TLR7/TLR8; buffer, pH and temperature not in the material. The following applies: protein: recombinant; chain copies: 2; single-stranded.

The target in series [7] is T1, TLR8 WT (hTLR8). The experiment in a line: SPR; mean computed from runs 1.8±0.2, 1.8±0.2, 1.5±0.2; SPR with recombinant TLR7/TLR8; buffer, pH and temperature not in the material. The following applies: protein: recombinant; chain copies: 2; single-stranded.
The next series deals with T4, TLR8 I403S (human, UniProt Q9NR97 27-827, I403S).
T4 sequence: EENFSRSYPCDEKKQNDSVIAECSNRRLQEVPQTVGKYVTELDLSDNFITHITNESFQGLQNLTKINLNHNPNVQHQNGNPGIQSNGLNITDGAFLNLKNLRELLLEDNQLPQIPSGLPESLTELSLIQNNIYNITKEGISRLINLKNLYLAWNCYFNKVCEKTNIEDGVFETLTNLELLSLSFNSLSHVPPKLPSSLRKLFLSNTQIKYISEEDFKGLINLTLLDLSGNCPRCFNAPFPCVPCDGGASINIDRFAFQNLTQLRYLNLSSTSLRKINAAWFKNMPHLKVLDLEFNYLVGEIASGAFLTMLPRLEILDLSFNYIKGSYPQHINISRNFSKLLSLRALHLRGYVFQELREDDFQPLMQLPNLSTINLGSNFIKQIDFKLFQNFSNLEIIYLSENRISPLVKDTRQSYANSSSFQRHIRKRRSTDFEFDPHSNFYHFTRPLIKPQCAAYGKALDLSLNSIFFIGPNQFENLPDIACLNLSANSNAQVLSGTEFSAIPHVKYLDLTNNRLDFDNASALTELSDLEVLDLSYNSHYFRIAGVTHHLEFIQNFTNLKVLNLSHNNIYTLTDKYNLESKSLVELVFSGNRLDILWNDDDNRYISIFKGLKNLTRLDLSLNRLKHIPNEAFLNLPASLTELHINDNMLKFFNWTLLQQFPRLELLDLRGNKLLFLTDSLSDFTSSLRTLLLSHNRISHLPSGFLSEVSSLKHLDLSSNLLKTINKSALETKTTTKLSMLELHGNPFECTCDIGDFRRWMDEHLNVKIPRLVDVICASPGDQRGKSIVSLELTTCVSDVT
Kind of series: SPR; mean computed from runs 7.6±0.5, 9.7±0.9, 7.5±0.3; SPR with recombinant TLR7/TLR8; buffer, pH and temperature not in the material. The settings on record: protein: recombinant; chain copies: 2; single-stranded.

Series [8] has as its target T1, TLR8 WT (hTLR8). The experiment in a line: SPR; control of the nucleoside series; mean computed from runs 1.4±0.9, 1.5±0.09, 1.6±0.1; SPR with recombinant TLR7/TLR8; buffer, pH and temperature not in the material. The following applies: protein: recombinant; chain copies: 2; single-stranded.
Series [9] deals with T1, TLR8 WT (hTLR8). Kind of series: SPR; average; runs 5±1, 7±1, 5±1, 12±3, 7±1, 11±2; SPR with recombinant TLR7/TLR8; buffer, pH and temperature not in the material. The following applies: protein: recombinant; chain copies: 2; single-stranded.
Series [10] concerns the target T1, TLR8 WT (hTLR8). Kind of series: SPR; average; runs 3±1, 4±1, 5±1, 3±0.4, 4±1, 4±1; SPR with recombinant TLR7/TLR8; buffer, pH and temperature not in the material. The following applies: protein: recombinant; chain copies: 2; single-stranded.
Series [11] addresses T2, TLR7 WT (mmTLR7). The experiment in a line: SPR; average stated in text; table runs 38±2, 32±2, 30±1, 20±11, 11±1 (mean 26.2); SPR with recombinant TLR7/TLR8; buffer, pH and temperature not in the material. The settings on record: protein: recombinant; chain copies: 2; single-stranded.
The target in series [12] is T1, TLR8 WT (hTLR8). Kind of series: SPR; not detected; SPR with recombinant TLR7/TLR8; buffer, pH and temperature not in the material. The settings on record: protein: recombinant; chain copies: 2; single-stranded.
The target of series [13] is T2, TLR7 WT (mmTLR7). The experiment in a line: SPR; average; runs 7±2, 7±1, 6±1, 4±2, 4±2; SPR with recombinant TLR7/TLR8; buffer, pH and temperature not in the material. The settings on record: protein: recombinant; chain copies: 2; single-stranded.

Take “Macaca mulatta TLR7 (mmTLR7) ectodomain (receptor)”: the stoichiometry N in series [1], in series [2] and in series [3] was 2 throughout.

B1: GUC-v6 PS (dGdTmC) (XNA)
DNA: GTC
modifications: DNA G1, DNA T2, 2'-OMe C3; phosphorothioate linkages, stereo-random
Turning to B1, the binding result in the series with TLR8 WT (hTLR8) [4] and with TLR7 WT (mmTLR7) [5] was “no binding” throughout.

B2: mGrArA PS (XNA)
strand: GAA
modifications: 2'-OMe G1, RNA A2 A3; phosphorothioate linkages, stereo-random
As to B2, the binding result in the series with TLR7 WT (mmTLR7) [6] is listed as “binds”; in the series with TLR8 F495S, “no binding”. The Kd was 1.7 µM with TLR8 WT (hTLR8) [7], 8.27 µM with TLR8 I403S and 1.5 µM with TLR8 WT (hTLR8) [8].

B3: GCC-v4 PS (mGdCdC) (XNA)
strand: GCC
modifications: 2'-OMe G1, DNA C2, DNA C3; phosphorothioate linkages, stereo-random
Turning to B3, the binding result with TLR7 WT (mmTLR7) [5] is on record as “no binding”. Besides, in the series with TLR8 WT (hTLR8) [9], the Kd is 8 µM.

B4: GAG-v1 PS (mGmAdG) (XNA)
strand: GAG
modifications: 2'-OMe G1, 2'-OMe A2, DNA G3; phosphorothioate linkages, stereo-random
In the case of B4, the Kd in the series with TLR8 WT (hTLR8) [10] is 4 µM; with TLR7 WT (mmTLR7) [11], 20.2 µM.

B5: GUC-v1 PS (mGmUdC) (XNA)
RNA: GUC
modifications: 2'-OMe G1, 2'-OMe U2, DNA C3; phosphorothioate linkages, stereo-random
As for B5, the binding result with TLR8 WT (hTLR8) [12] was “no binding”. Also, the Kd with TLR7 WT (mmTLR7) [13] worked out at 5.6 µM.

The values above are taken from article PMC13043311, “2′-O-Methyl-guanosine RNA fragments antagonize TLR7 and TLR8 to limit autoimmunity”.
